B1: peptide HD2 (from tick evasin EVA4) / CXCL11 (biotinylated, synthetic) (parent complex)
chain 1: EEDDYTAYAPLTCYFT
chain 2: FPMFKRGRCLCIGPGVKAVKVADIEKASIMYPSNNCDKIEVIITLKENKGQRCLNPKSKQARLIIKKVERKNF
B2: peptide HD2 (from tick evasin EVA4) / CCL4 (biotinylated, synthetic) (parent complex)
chain 1: EEDDYTAYAPLTCYFT
chain 2: APMGSDPPTACCFSYTARKLPRNFVVDYYETSSLCSQPAVVFQTKRSKQVCADPSESWVQEYVYDLELN

Variants of: B1

Compared with chain 1 EEDDYTAYAPLTMYFT, chain 1 EEDDYTAYAPLTEYFT is higher in enrichment: -6.65 log2 (difference from the parental peptide) for the first, -5.07 log2 (difference from the parental peptide) for the second.

First: chain 1 EEDDYTAYAPLTFYFT
Second: chain 1 EEDDYTAYAPLTVYFT
The enrichment of the first is lower: -5.76 log2 (difference from the parental peptide) for the first, -1.39 log2 (difference from the parental peptide) for the second.

First: chain 1 EEDDYTAYAPLQCYFT
Second: chain 1 EEDDYTAYAPLACYFT
The enrichment of the first is higher: -3.76 log2 (difference from the parental peptide) for the first, -4.34 log2 (difference from the parental peptide) for the second.

Going from chain 1 EEDDYTAYAPLICYFT to chain 1 EEDDYTAYAPLFCYFT, the enrichment falls from 0.0621 log2 (difference from the parental peptide) to -2.38 log2 (difference from the parental peptide).

Compared with chain 1 EEDDYTAYAPLECYFT, chain 1 EEDDYTAYAPLVCYFT is higher in enrichment: -0.922 log2 (difference from the parental peptide) for the first, 1.82 log2 (difference from the parental peptide) for the second.

Going from chain 1 EEDWYTAYAPLTCYFT to chain 1 EEDIYTAYAPLTCYFT, the enrichment falls from -2.72 log2 (difference from the parental peptide) to -4.93 log2 (difference from the parental peptide).

Compared with chain 1 EEDLYTAYAPLTCYFT, chain 1 EEDMYTAYAPLTCYFT is lower in enrichment: -4.01 log2 (difference from the parental peptide) for the first, -5.76 log2 (difference from the parental peptide) for the second.

First: chain 1 EEDFYTAYAPLTCYFT
Second: chain 1 EENDYTAYAPLTCYFT
The enrichment of the first is lower: -5.51 log2 (difference from the parental peptide) for the first, -0.358 log2 (difference from the parental peptide) for the second.

First: chain 1 EESDYTAYAPLTCYFT
Second: chain 1 EEFDYTAYAPLTCYFT
The enrichment of the first is lower: -4.11 log2 (difference from the parental peptide) for the first, -3.31 log2 (difference from the parental peptide) for the second.

First: chain 1 EEDDNTAYAPLTCYFT
Second: chain 1 EEDDWTAYAPLTCYFT
The enrichment of the first is lower: -4.84 log2 (difference from the parental peptide) for the first, 5.39 log2 (difference from the parental peptide) for the second.

First: chain 1 EEDDITAYAPLTCYFT
Second: chain 1 EEDDYTAFAPLTCYFT
The enrichment of the first is lower: -1.31 log2 (difference from the parental peptide) for the first, 0.146 log2 (difference from the parental peptide) for the second.

First: chain 1 EEDDYTASAPLTCYFT
Second: chain 1 EEDDYTANAPLTCYFT
The enrichment of the first is lower: -2.63 log2 (difference from the parental peptide) for the first, 0.757 log2 (difference from the parental peptide) for the second.

Going from chain 1 EEDDYTAIAPLTCYFT to chain 1 EEDDYTAYAELTCYFT, the enrichment falls from -0.997 log2 (difference from the parental peptide) to -3.45 log2 (difference from the parental peptide).

Going from chain 1 EEDDYTAYAMLTCYFT to chain 1 EEDDYTAYADLTCYFT, the enrichment rises from -4.64 log2 (difference from the parental peptide) to 8.22 log2 (difference from the parental peptide).

First: chain 1 ESDDYTAYAPLTCYFT
Second: chain 1 EMDDYTAYAPLTCYFT
The enrichment of the first is lower: -2.62 log2 (difference from the parental peptide) for the first, 0.915 log2 (difference from the parental peptide) for the second.

Compared with chain 1 EHDDYTAYAPLTCYFT, chain 1 ETDDYTAYAPLTCYFT is higher in enrichment: -4.78 log2 (difference from the parental peptide) for the first, -4.37 log2 (difference from the parental peptide) for the second.

First: chain 1 EEDDYTSYAPLTCYFT
Second: chain 1 EEDDYTMYAPLTCYFT
The enrichment of the first is lower: 0.213 log2 (difference from the parental peptide) for the first, 1.69 log2 (difference from the parental peptide) for the second.

Compared with chain 1 EEDDYTDYAPLTCYFT, chain 1 EEDDYTNYAPLTCYFT is lower in enrichment: 2.88 log2 (difference from the parental peptide) for the first, 1.13 log2 (difference from the parental peptide) for the second.

First: chain 1 EEDDYTQYAPLTCYFT
Second: chain 1 EEDDYTEYAPLTCYFT
The enrichment of the first is higher: 3.76 log2 (difference from the parental peptide) for the first, -0.399 log2 (difference from the parental peptide) for the second.

Compared with chain 1 EEDDYTLYAPLTCYFT, chain 1 YEDDYTAYAPLTCYFT is higher in enrichment: 0.413 log2 (difference from the parental peptide) for the first, 1.69 log2 (difference from the parental peptide) for the second.

Going from chain 1 NEDDYTAYAPLTCYFT to chain 1 PEDDYTAYAPLTCYFT, the enrichment falls from -4.13 log2 (difference from the parental peptide) to -4.68 log2 (difference from the parental peptide).

First: chain 1 EEDDYTAYAPTTCYFT
Second: chain 1 EEDDYTAYAPHTCYFT
The enrichment of the first is lower: -1.48 log2 (difference from the parental peptide) for the first, 0.15 log2 (difference from the parental peptide) for the second.

First: chain 1 EEDDYTAYAPMTCYFT
Second: chain 1 EEDDYTAYAPCTCYFT
The enrichment of the first is higher: 2.73 log2 (difference from the parental peptide) for the first, -2.08 log2 (difference from the parental peptide) for the second.

Compared with chain 1 EEDDYTAYAPDTCYFT, chain 1 EEDDYTAYAPLTCTFT is higher in enrichment: -5.22 log2 (difference from the parental peptide) for the first, -5.08 log2 (difference from the parental peptide) for the second.

Compared with chain 1 EEDDYTAYAPLTCYFM, chain 1 EEDDYTAYAPLTCYFY is lower in enrichment: -0.985 log2 (difference from the parental peptide) for the first, -3.28 log2 (difference from the parental peptide) for the second.

Compared with chain 1 EEDDYTAYAPLTCYFP, chain 1 EEDDYTAYAPLTCYFL is higher in enrichment: 0.438 log2 (difference from the parental peptide) for the first, 0.663 log2 (difference from the parental peptide) for the second.

Compared with chain 1 EEDDYTAYAPLTCYFV, chain 1 EEDDYTAYAPLTCYFQ is higher in enrichment: -2.73 log2 (difference from the parental peptide) for the first, -2.38 log2 (difference from the parental peptide) for the second.

First: chain 1 EEDDYTAYAPLTCYFE
Second: chain 1 EEDDYPAYAPLTCYFT
The enrichment of the first is lower: 1.12 log2 (difference from the parental peptide) for the first, 1.34 log2 (difference from the parental peptide) for the second.

Going from chain 1 EEDDYRAYAPLTCYFT to chain 1 EEDDYHAYAPLTCYFT, the enrichment falls from 0.535 log2 (difference from the parental peptide) to -0.342 log2 (difference from the parental peptide).

Going from chain 1 EEDDYQAYAPLTCYFT to chain 1 EEDDYWAYAPLTCYFT, the enrichment rises from -2.01 log2 (difference from the parental peptide) to 9.7 log2 (difference from the parental peptide).

First: chain 1 EEDDYCAYAPLTCYFT
Second: chain 1 EEDDYSAYAPLTCYFT
The enrichment of the first is lower: -5.45 log2 (difference from the parental peptide) for the first, 1.57 log2 (difference from the parental peptide) for the second.

Going from chain 1 EEDDYIAYAPLTCYFT to chain 1 EEDDYTAYAPLTCYLT, the enrichment falls from -0.429 log2 (difference from the parental peptide) to -2.87 log2 (difference from the parental peptide).

Compared with chain 1 EEDDYTAYAPLTCYCT, chain 1 EEDDYTAYAPLTCYST is lower in enrichment: 0.343 log2 (difference from the parental peptide) for the first, -1.86 log2 (difference from the parental peptide) for the second.

Going from chain 1 EEDDYTAYAPLTCYTT to chain 1 EEDDYTAYAPLTCYMT, the enrichment falls from -0.0704 log2 (difference from the parental peptide) to -0.451 log2 (difference from the parental peptide).

Going from chain 1 EEDDYTAYAPLTCYRT to chain 1 EEDDYTAYAPLTCYGT, the enrichment falls from -4.18 log2 (difference from the parental peptide) to -4.79 log2 (difference from the parental peptide).

Compared with chain 1 EEDDYTAYTPLTCYFT, chain 1 EEDDYTAYRPLTCYFT is lower in enrichment: 1.25 log2 (difference from the parental peptide) for the first, -1.01 log2 (difference from the parental peptide) for the second.

Compared with chain 1 EEDDYTAYQPLTCYFT, chain 1 EEDDYTAYEPLTCYFT is higher in enrichment: 0.165 log2 (difference from the parental peptide) for the first, 2.26 log2 (difference from the parental peptide) for the second.

Variants of: B2

First: chain 1 EEDEYTAYAPLTCYFT
Second: chain 1 EEDIYTAYAPLTCYFT
The enrichment of the first is higher: 0.269 log2 (difference from the parental peptide) for the first, -3.77 log2 (difference from the parental peptide) for the second.

Compared with chain 1 EEDRYTAYAPLTCYFT, chain 1 EEDDDTAYAPLTCYFT is higher in enrichment: -5.66 log2 (difference from the parental peptide) for the first, -5.03 log2 (difference from the parental peptide) for the second.

Compared with chain 1 EEDDLTAYAPLTCYFT, chain 1 EEDDYTAYAPLTCYPT is higher in enrichment: -1.57 log2 (difference from the parental peptide) for the first, 1.32 log2 (difference from the parental peptide) for the second.

First: chain 1 EEDDYTAYAPLTCYGT
Second: chain 1 EEDDYTAYAPLTCYMT
The enrichment of the first is lower: -2.79 log2 (difference from the parental peptide) for the first, 1.08 log2 (difference from the parental peptide) for the second.

Compared with chain 1 EEDDYTYYAPLTCYFT, chain 1 EEDDYTEYAPLTCYFT is higher in enrichment: -1.83 log2 (difference from the parental peptide) for the first, 2.68 log2 (difference from the parental peptide) for the second.

First: chain 1 EEDDYTNYAPLTCYFT
Second: chain 1 EEDDYTAYAPLTCTFT
The enrichment of the first is higher: 0.608 log2 (difference from the parental peptide) for the first, -1.65 log2 (difference from the parental peptide) for the second.

Going from chain 1 EEDDYTAYAPLTCIFT to chain 1 EEVDYTAYAPLTCYFT, the enrichment falls from -1.56 log2 (difference from the parental peptide) to -3.36 log2 (difference from the parental peptide).

Going from chain 1 EELDYTAYAPLTCYFT to chain 1 EEMDYTAYAPLTCYFT, the enrichment rises from -3.31 log2 (difference from the parental peptide) to -2.83 log2 (difference from the parental peptide).

Going from chain 1 EEFDYTAYAPLTCYFT to chain 1 EEADYTAYAPLTCYFT, the enrichment falls from -2.01 log2 (difference from the parental peptide) to -2.51 log2 (difference from the parental peptide).

First: chain 1 EEDDYTAYAPLTVYFT
Second: chain 1 EEDDYTAYAPLTQYFT
The enrichment of the first is higher: -2.03 log2 (difference from the parental peptide) for the first, -7.94 log2 (difference from the parental peptide) for the second.

First: chain 1 LEDDYTAYAPLTCYFT
Second: chain 1 TEDDYTAYAPLTCYFT
The enrichment of the first is lower: -1.55 log2 (difference from the parental peptide) for the first, -0.507 log2 (difference from the parental peptide) for the second.

Going from chain 1 EEDDYTAHAPLTCYFT to chain 1 EEDDYTAYAPLACYFT, the enrichment rises from -0.426 log2 (difference from the parental peptide) to 0.00832 log2 (difference from the parental peptide).

Going from chain 1 EEDDYTAYAPLTCYFK to chain 1 EEDDYTAYAPLTCYFY, the enrichment falls from 0.843 log2 (difference from the parental peptide) to -1.43 log2 (difference from the parental peptide).

Going from chain 1 EEDDYTAYAPLTCYFQ to chain 1 EMDDYTAYAPLTCYFT, the enrichment falls from 1.49 log2 (difference from the parental peptide) to -2.17 log2 (difference from the parental peptide).

Going from chain 1 ENDDYTAYAPLTCYFT to chain 1 EVDDYTAYAPLTCYFT, the enrichment rises from -2.2 log2 (difference from the parental peptide) to -1.26 log2 (difference from the parental peptide).

Compared with chain 1 EEDDYPAYAPLTCYFT, chain 1 EEDDYIAYAPLTCYFT is lower in enrichment: -5.36 log2 (difference from the parental peptide) for the first, -5.92 log2 (difference from the parental peptide) for the second.

Compared with chain 1 EEDDYDAYAPLTCYFT, chain 1 EEDDYTAYALLTCYFT is lower in enrichment: 3.6 log2 (difference from the parental peptide) for the first, -9.07 log2 (difference from the parental peptide) for the second.

Compared with chain 1 EEDDYTAYAFLTCYFT, chain 1 EEDDYTAYAWLTCYFT is lower in enrichment: -7.39 log2 (difference from the parental peptide) for the first, -7.42 log2 (difference from the parental peptide) for the second.

Compared with chain 1 EEDDYTAYAVLTCYFT, chain 1 EEDDYTAYAPMTCYFT is higher in enrichment: -9.95 log2 (difference from the parental peptide) for the first, 2.23 log2 (difference from the parental peptide) for the second.

— PMC11969024 (2025)
